Experiment: Bioconversion of eugenol to vanillin: one-pot concurrent cascade EUGO + alkene cleavage oxygenase (5 mM scale)
Format: biochemical
Settings: Table 8b, EUGO FD-CFE 1 mg/mL, CO-0X FD-CFE 1 mg/mL, catalase 10 mg/mL, eugenol 5 mM
Method: Stock solutions of eugenol (100 mM) were prepared in ethanol or DMSO and stored at −20° C. Unless otherwise stated, the reaction mixtures (0.5 mL) were set up in 1.5 mL glass vials as follows: freeze-dried cell free extract of IECO/CO-XX (3 mg) and EUGO (0.5 mg) were dissolved in the reaction buffer (50 mM glycine-NaOH pH 9.0) containing sodium ascorbate (1 mM), FeSO4 (1 mM) and bovine liver catalase (5 mg, Sigma Aldrich C40). The reaction was initiated by the addition of 0.025 mL eugenol stock (final concentration 5 mM), then incubated at 30° C. and 120 rpm overnight (rotary shaker). The final content of cosolvent was 5% v/v. To improve oxygenation, the vials were placed horizontally. At certain time points, samples (0.2 mL) were quenched with methanol (0.4 mL) and the mixture was centrifuged at 20238 g for 5-10 mins. Finally, the supernatant was analysed by HPLC.
EUGO (0.5 mg CFE), CO-25 (3 mg CFE) and catalase (5 mg, Sigma product #C40) were dissolved in 50 mM Glycine-NaOH pH 9.0 or Tris-HCl pH 8.0 together with FeSO4 (1 mM) and sodium ascorbate (1 mM). Note that the buffer content of the freeze-dried biocatalyst prep was not considered for the assembling of the reaction. The reaction was started by the addition of 5 mM eugenol from a 20× stock in ethanol. The reactions—performed in glass vials—were then incubated at 30° C. and 120 rpm (25 mm shaker). Finally, samples of the reaction mixture were diluted with MeOH and analyzed by HPLC at 280 and 340 nm.

B1: CO-16: alkene cleavage oxygenase, Valsa mali, SEQ ID NO: 76 (protein, listed as Valsa mali)
chain: MAHIFDIAPAVKGYASGRLAKPGDATTFPDTDVFRGINKPSRFEGDIFDLEVTGTIPKDIDGTFYRVQPDHRFPPLFEDDIHFNGDGSVTAIRISNGHADFKQRYVQTDRYKAETAARRSLFGRYRNPWTDNESVKGVIRTASNTNVTFWRGILLASKEDGPPFAMDPVTLETLGRYDFEGQIKAPTFTAHPKFDPDTGEMLCFAYEAGGDGNDGSCDVVVWTVDADGKKTEECWYKAPFAGMIHDMAVSKNFVVLPLTPLKVNMDRMKKGGEKFAWDPKEDQYYGLVPRRNAKPEDIRWFRADNGMAPFLKTLSTHCADTPASSAFQGHIAGCYENEEGHVVVDLTVADGNVFFWWPPDDGTAIPPGKKPNQLSSTTTRWILDPKAETNTRITPAYVWPTNGEFSRIDDRFVTKKYKHFWQAKVDPTRPYDFAKCGPPAGGLFNCLGHYTWSPDNPLAKGEEDVFFFGPTATVQEPSFIPKDEGGEGDGYLIALVNHLDVLRNDIAVFDAQHLAGGPLAVLHLPLKLKLGLHGNFVDHRDIEAWQRRRDAKGDVGPVKVATEPLPWQKSFWDRRQDGQNGGLNGTH
Product distribution after 24 hours 2a (%) (pH 8.0): 76.0% | Product distribution after 24 hours 3a (%) (pH 8.0): 4.3% | Product distribution after 24 hours 5a (%) (pH 8.0): 19.7% | Product distribution after 24 hours 2a (%) (pH 9.0): 71.0% | Product distribution after 24 hours 3a (%) (pH 9.0): 5.5% | Product distribution after 24 hours 5a (%) (pH 9.0): 23.5%

B2: CO-22: alkene cleavage oxygenase, Pseudomonas kilonensis, SEQ ID NO: 128 (protein, listed as Pseudomonas kilonensis)
chain: MTIPFPQTSEFSGALYTPSRVEAELFDLEVEGTLPAEIRGAFYQVAPDPQYPPMLGTDIFFNGDGMVTGFYFANGKVSMRRRYVKTDRLMAQRREGRSLNGVYRNLYTNDPLAAKNNTTANTTVIPHNGVLLALKEDALPWAMDLETLETLGEWTFDGQIKAATFTAHPKRDPATGNLLAFSYEAKGDGTPDIAYFEISPDGKLLHEIWFQAPYAAMVHDFAVTERYVVFPLIPLTVDVERMKNGGPHFQWQPDLPQLFAVVPRNGNAQDVRWFKGPKDSFQGHTLNAFDEDGKVYVDMPVTGGNVFYFFPQADGYVPPPETLAASLMRWTFDLSSPQDEVEPQPLTEYPCEFPRCDDRYIGRKYQHGFLLAFDPERPYNPANGPIPFQFFNLLVHLNLKTGSTDAWFPGDSGCFQEPIFIPRSADAEEADGYVVALLNLIAEGRSELVVLDSRDMAGGPIARIRIPFRMRMSLHGCWAPSD
Product distribution after 24 hours 2a (%) (pH 8.0): 69.4% | Product distribution after 24 hours 3a (%) (pH 8.0): 15.0% | Product distribution after 24 hours 5a (%) (pH 8.0): 15.6% | Product distribution after 24 hours 2a (%) (pH 9.0): 63.2% | Product distribution after 24 hours 3a (%) (pH 9.0): 16.8% | Product distribution after 24 hours 5a (%) (pH 9.0): 20.0%

B3: CO-15: alkene cleavage oxygenase, Herbaspirillum sp., SEQ ID NO: 74 (protein, listed as Herbaspirillum sp.)
chain: MNIRFSNNDFKSFEAPMRAEIELTGLEVVQGKVPKNLEGGFFRLIGDRKWPAFVDNDVFMLNEDGMASCFYFKDGKVDFRMRYVRTPRFVAEEKAGRALFGHYRNPFSDDPSVAGLSRGTANVTMLMHGGKLLALKEDSPAIELNPFTLETIGEYDWNGKVTAKAITAHPKIDAKTGELVFFGYCAAGPATRDIAYYEADSEGNVTHETWFHAPYTCMVHDIMVTQNYVVFPITPLRHELEWIKRSEPAFKWDPHESVYLGVLPRKGRGDQIRWFKGPNQCHGHTVGAYDDGRYIYADNTFSKRSFFHFFPNVDGSQFKPTDAMPYMKRVVIDMERSDNSFVEQPLFEYPCELPRIDTRFETLPYSFATMNLLDVPGQERVGRGFQWIATMDVNGAKPSKILYAGDNCSIGEPQFVPAHDNAAEGDGYIMTVVGRHEQMRSELLILDASDINAPPVATVALPFRLRSTGHGYWYGGRQLRGETNFPGAW
Product distribution after 24 hours 2a (%) (pH 8.0): 68.3% | Product distribution after 24 hours 3a (%) (pH 8.0): 13.5% | Product distribution after 24 hours 5a (%) (pH 8.0): 18.2% | Product distribution after 24 hours 2a (%) (pH 9.0): 61.2% | Product distribution after 24 hours 3a (%) (pH 9.0): 16.5% | Product distribution after 24 hours 5a (%) (pH 9.0): 22.2%

B4: CO-17: alkene cleavage oxygenase, Coniochaeta pulveracea, SEQ ID NO: 82 (protein, listed as Coniochaeta pulveracea)
chain: MAHIFDLAPEVSLPDEPIYKDGKLHRPNHVQFPQTPVFASMNKPSRFEGTILSLEHTGIIPPEINGTFFRVQPDHRFPPMFEDDIHFNGDGSVTAIRIFDGKVDFRQRYVHTERYKAETKARRSLFGRYRNPWTDNESVKGVIRTASNTNVFFWRGMLLATKEDGPPYAMDPVTLETYGRYDFEGQILSPTFTAHPKFDPRTGEMVCFAYETGGDGADCSREVMVWTLDKDGKKVSERWFEAPFAGMIHDCGLSENWLVLPLTPIKMDLERMKRGGNKFAWDPKEDQVYGLVPRRGDGEVKWFRGENAFHGHVAGCYENAQGHVVIDLTVADGNVFFWFPPDGEEQGQFAKRNKLSSPTHRWILDPSLPNNARITPALVWPTNGEFSRIDDRWTTRKYKHFWLAKVDPSRPYDFAKCGPPAGGLFNCLGHYTWDLDNELATGQEDVYFAGPTCTFQEPTFIPKGDKEGEGWLIALVNHLDVLRNDVVILDAQNLAKGPVCTIHLPLKLKLGLHGNWVDWRDIEDWTKRRQEDGEVGPVQVATEMLPWQKAFWEKEKEKNGNGVEGPNINGTNGANGTNGVNGSSH
Product distribution after 24 hours 2a (%) (pH 8.0): 73.1% | Product distribution after 24 hours 3a (%) (pH 8.0): 7.8% | Product distribution after 24 hours 5a (%) (pH 8.0): 19.1% | Product distribution after 24 hours 2a (%) (pH 9.0): 65.8% | Product distribution after 24 hours 3a (%) (pH 9.0): 11.8% | Product distribution after 24 hours 5a (%) (pH 9.0): 22.5%

B5: CO-20: alkene cleavage oxygenase, Pseudomonas frederiksbergensis, SEQ ID NO: 120 (protein, listed as Pseudomonas frederiksbergensis)
chain: MTHPFPQTPEFSGALYAPSRVEAEVFDLEVEGTLPDSIRGAFYQVAPDPQYPPMLGNDIFFNGDGMVSAFNFADGKVSMRRRYVKTDRLMAQRREGRSLNGVYRNVFTNDPLAAKNNTTANTSVVAHNGVLLALKEDALPWAMDLETLETLGEWSFDGQIESATFTAHPKLDPVTGNLLAFSYEAKGDGTPDLAYFELSPDGKLLHQIWFQAPYAAMVHDFAVTEHYVVFPLIPLTVDVERMKNGGQHFQWQPDLPQLFAVVPRNGHAEDVRWFKGPKDGFQGHTLNAFDEDDKVYVDMPVTGGNIFYFFPQADGYVPPPETLAASLMRWTFDLTSTQDDIQPQPLTDYPCEFPRCDDRYIGRKYEHGFVLAFDPERPYNPANGPIPFQFFNLLARVNLKTGATDAWFPGDSGCFQEPIFIPRAPDAQEADGYVVALLNLIAEGRSELVVLDSRDMASGPIARIKVPFRLRMSLHGCWVPSKK
Product distribution after 24 hours 2a (%) (pH 8.0): 59.4% | Product distribution after 24 hours 3a (%) (pH 8.0): 23.6% | Product distribution after 24 hours 5a (%) (pH 8.0): 17.0% | Product distribution after 24 hours 2a (%) (pH 9.0): 57.8% | Product distribution after 24 hours 3a (%) (pH 9.0): 22.0% | Product distribution after 24 hours 5a (%) (pH 9.0): 20.2%

B6: CO-23: alkene cleavage oxygenase, Pseudomonas viciae, SEQ ID NO: 130 (protein, listed as Pseudomonas viciae)
chain: MTIPFPQTPEFSGALYTPSRVEAEVFDLEIEGVLPASIGGTFYQVAPDPQYPPMLGNDIFFNGDGVVSRFNFANGKVSMRRRYVKTDRLLAQRREGRSLNGVYRNVYTNDRLAAKNNTTANTTVIPHNGVLLALKEDALPWAMDLDTLETLGEWTFDGQIKSATFTAHPKLDPVTGNLLACSYEAKGDGTPDLAYFEISPDGKLLHEIWFQAPYAAMVHDFAVTERYVVFPLIPLTVDVERMKNGGPHFQWQPDLPQLFAVVPRNGNAQDVRWFKGPKDGFQGHTLNAFDEDGKVYVDMPVTGGNIFYFFPQADGYVPPPETLAASLMRWTFDLNSALDEVEPQPLTDYPCEFPRCDDRYIGRKYQHGFLLAFDPERPYNPANGPIPFQFFNLLVHLNLKTGITDAWFPGDSGCFQEPIFIPRSADAEEADGYVVALLNLIAEGRSELVVLDSRDMASGPIARIRIPFRMRMSLHGCWTADPN
Product distribution after 24 hours 2a (%) (pH 8.0): 69.0% | Product distribution after 24 hours 3a (%) (pH 8.0): 13.7% | Product distribution after 24 hours 5a (%) (pH 8.0): 17.3% | Product distribution after 24 hours 2a (%) (pH 9.0): 67.0% | Product distribution after 24 hours 3a (%) (pH 9.0): 13.6% | Product distribution after 24 hours 5a (%) (pH 9.0): 19.4%

B7: CO-13: alkene cleavage oxygenase, Actinobacteria bacterium, SEQ ID NO: 64 (protein, listed as Actinobacteria bacterium)
chain: MVRFPPPKDPFDAPMRVEADIRGVQVTQGEVPEHLDGIYYRCVSDRQWPSYVENDLELFNSDGMIISFRFHKGRVDFKSRYVRTPRFVAEEKAGRALFGAYRNPFDDDPSVAGISRGLANTNVFYHGGKLYASKEDSPPILLDPITLETIGEYDFEGALTSRTSTAHPKFDPITGEMVFFGYEAKGPGTPDIAYYEADASGRIIHEAWLEAPYTSMVHDWAVTQNFVVFPIIPLRSDIEWIKQGRSYFQWDPYEDVYLGVMPRKGTAKDLRWYRGSNRFASHIMGAYDDGRYIYIDTPVGQTNYFPWFPDITGAPYDPERSKGYLSRWTIDTQGESDGFTETRLCDLPGEFPRMDDRQETLPYHWGIMLLTDGPGRVAPGGGFRWLMGIDLKTGRKQIYYPGDNCTLGEAIFVPAAPDAPPGVGYVFTVVARRAEMRSDLVILDAQHIDGEPVCTLSLPMRIRMGVHGNWVSAEELARRTA
Product distribution after 24 hours 2a (%) (pH 8.0): 56.4% | Product distribution after 24 hours 3a (%) (pH 8.0): 26.4% | Product distribution after 24 hours 5a (%) (pH 8.0): 17.2% | Product distribution after 24 hours 2a (%) (pH 9.0): 45.3% | Product distribution after 24 hours 3a (%) (pH 9.0): 32.4% | Product distribution after 24 hours 5a (%) (pH 9.0): 22.3%

From patent US20260176659A1, “IMPROVED METHOD FOR THE PRODUCTION OF NATURAL VANILLIN” (BASE SE, priority 2022, published 2026)
